# Measurements reported in US20240060104A1, “ATP-PRT VARIANT WITH REDUCED FEEDBACK INHIBITION BY HISTIDINE, AND HISTIDINE-PRODUCING STRAIN EXPRESSING SAME” (DAESANG CORPORATION, priority 2020, published 2024).
# B1: hisG_SDM7: ATP-PRT variant containing H232T, R250H, T252L, E271K and S288P mutations (protein)
# chain: MTDNTRLRIAMQKSGRLSDDSRELLARCGIKINLHTQRLIAMAENMPIDILRVRDDDIPGLVMDGVVDLGIIGENVLEEELLNRRAQGEDPRYFTLRRLDFGGCRLSLATPVDEAWDGPLSLNGKRIATSYPHLLKRYLDQKGISFKSCLLNGSVEVAPRAGLADAICDLVSTGATLEANGLREVEVIYRSKACLIQRDGEMEESKQQLIDKLLTRIQGVIQARESKYIMMTAPTERLDEVIALLPGAEHPLILPLAGDQQRVAMHMVSSKTLFWETMEKLKALGASPILVLPIEKMME
# modifications: hisG_SDM7
# notes: ATP-PRT variant containing H232T, R250H, T252L, E271K and S288P mutations
# Molecular target: T1, ATP phosphoribosyltransferase (Escherichia coli, UniProt P60757, E271K/H232T/R250H/S288P/T252L)
# T1 construct: endogenous in cells; host or cells: E. coli DS9H (chromosomal hisG); sonicated cells, centrifuged supernatant
# Format: biochemical, E. coli
# Settings: FIG. 1, compared among hisG_WT, hisG_SDM4, hisG_SDM7
# Procedure: Each strain was cultured under conditions of 30° C. and 180 rpm. When the OD600 reached 0.6, ATP-PRT expression was induced with 1 mM IPTG (final concentration) and additional culture was performed for about 4 hours. The cells obtained after culturing were sonicated and centrifuged. The obtained supernatants were used for evaluation of ATP phosphoribosyltransferase activity. […] The protein in each supernatant was quantified to match the concentration, and the enzyme activity was measured after mixing the reactants according to the reaction composition shown in Table 8 below.
# The activity was measured at 30° C. at a UV wavelength of 290 nm at 2 minute intervals for 30 minutes.
molecule,measurement,value
B1,Resistance to activity inhibition by histidine,best resistance
